# Test results published in patent US20090105152A1.
# Square brackets hold non-standard residues; d marks the D form. * marks the point of attachment. Phe(4-Cl) = N[C@@H](Cc1ccc(Cl)cc1)C(=O)O; Phe(3-F) = N[C@@H](Cc1cccc(F)c1)C(=O)O; Izc = imidazolidine-2-carboxylic acid; Phe(2-F) = N[C@@H](Cc1ccccc1F)C(=O)O; Arg(Me) = CNC(=N)NCCC[C@H](N)C(=O)O; Decanoyl = CCCCCCCCCC(=O)*; dDap = NC[C@@H](N)C(=O)O; Dab = NCC[C@H](N)C(=O)O; azaGly = NNC(=O)O; βAla = NCCC(=O)O
# Biological target: human OT7T175 (metastin receptor) (human) (UniProt Q969F8)
# Sequence (Q969F8 whole entry L364H): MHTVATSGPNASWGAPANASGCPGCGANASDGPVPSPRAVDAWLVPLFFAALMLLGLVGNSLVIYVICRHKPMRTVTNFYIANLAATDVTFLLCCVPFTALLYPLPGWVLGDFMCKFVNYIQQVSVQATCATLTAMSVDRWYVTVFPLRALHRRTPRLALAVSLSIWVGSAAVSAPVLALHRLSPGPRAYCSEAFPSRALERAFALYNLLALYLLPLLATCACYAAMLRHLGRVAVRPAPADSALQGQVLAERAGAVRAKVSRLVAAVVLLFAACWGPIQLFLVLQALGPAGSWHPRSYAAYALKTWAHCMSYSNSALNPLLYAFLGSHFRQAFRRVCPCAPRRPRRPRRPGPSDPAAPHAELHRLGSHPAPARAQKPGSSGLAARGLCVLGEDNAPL
# Experiment: cell-based or functional assay
row,intracellular Ca ion level-increasing activity [specific activity to Metastin (1-54)] (relative to Metastin (1-54)),Binder
1,1.4,"Ac-[dY][dQ]NTF[azaGly]L[Arg(Me)]W-NH2 (SMILES CNC(=N)NCCC[C@H](NC(=O)[C@H](CC(C)C)NC(=O)NNC(=O)[C@H](Cc1ccccc1)NC(=O)[C@@H](NC(=O)[C@H](CC(N)=O)NC(=O)[C@@H](CCC(N)=O)NC(=O)[C@@H](Cc1ccc(O)cc1)NC(C)=O)[C@@H](C)O)C(=O)N[C@@H](Cc1c[nH]c2ccccc12)C(N)=O) [des(1)-Ac-[D-Tyr2,D-Gln3,Thr5,AzaGly7,Arg(Me)9,Trp10]MS10]"
2,2.3,"Ac-[dY]ANTF[azaGly]L[Arg(Me)]W-NH2 (SMILES CNC(=N)NCCC[C@H](NC(=O)[C@H](CC(C)C)NC(=O)NNC(=O)[C@H](Cc1ccccc1)NC(=O)[C@@H](NC(=O)[C@H](CC(N)=O)NC(=O)[C@H](C)NC(=O)[C@@H](Cc1ccc(O)cc1)NC(C)=O)[C@@H](C)O)C(=O)N[C@@H](Cc1c[nH]c2ccccc12)C(N)=O) [des(1)-Ac-[D-Tyr2,Ala3,Thr5,AzaGly7,Arg(Me)9,Trp10]MS10]"
3,2.4,"Ac-[dY][dDap]NTF[azaGly]L[Arg(Me)]W-NH2 (SMILES CNC(=N)NCCC[C@H](NC(=O)[C@H](CC(C)C)NC(=O)NNC(=O)[C@H](Cc1ccccc1)NC(=O)[C@@H](NC(=O)[C@H](CC(N)=O)NC(=O)[C@@H](CN)NC(=O)[C@@H](Cc1ccc(O)cc1)NC(C)=O)[C@@H](C)O)C(=O)N[C@@H](Cc1c[nH]c2ccccc12)C(N)=O) [des(1)-Ac-[D-Tyr2,D-Dap3,Thr5,AzaGly7,Arg(Me)9,Trp10]MS10]"
4,9.8,"Ac-NTF[azaGly]L[Arg(Me)]W-NH2 (SMILES CNC(=N)NCCC[C@H](NC(=O)[C@H](CC(C)C)NC(=O)NNC(=O)[C@H](Cc1ccccc1)NC(=O)[C@@H](NC(=O)[C@H](CC(N)=O)NC(C)=O)[C@@H](C)O)C(=O)N[C@@H](Cc1c[nH]c2ccccc12)C(N)=O) [des(1-3)-Ac-[Thr5,AzaGly7,Arg(Me)9,Trp10]MS10]"
5,0.4,"Ac-[dY][dW]NT[Phe(4-Cl)][azaGly]L[Arg(Me)]W-NH2 (SMILES CNC(=N)NCCC[C@H](NC(=O)[C@H](CC(C)C)NC(=O)NNC(=O)[C@H](Cc1ccc(Cl)cc1)NC(=O)[C@@H](NC(=O)[C@H](CC(N)=O)NC(=O)[C@@H](Cc1c[nH]c2ccccc12)NC(=O)[C@@H](Cc1ccc(O)cc1)NC(C)=O)[C@@H](C)O)C(=O)N[C@@H](Cc1c[nH]c2ccccc12)C(N)=O) [des(1)-Ac-[D-Tyr2,D-Trp3,Thr5,Phe(4Cl)6,AzaGly7,Arg(Me)9,Trp10]MS10]"
6,3,"Ac-[dY]KNTF[azaGly]L[Arg(Me)]W-NH2 (SMILES CNC(=N)NCCC[C@H](NC(=O)[C@H](CC(C)C)NC(=O)NNC(=O)[C@H](Cc1ccccc1)NC(=O)[C@@H](NC(=O)[C@H](CC(N)=O)NC(=O)[C@H](CCCCN)NC(=O)[C@@H](Cc1ccc(O)cc1)NC(C)=O)[C@@H](C)O)C(=O)N[C@@H](Cc1c[nH]c2ccccc12)C(N)=O) [des(1)-Ac-[D-Tyr2,Lys3,Thr5,AzaGly7,Arg(Me)9,Trp10]MS10]"
7,1,"Ac-[dY][dW]NT[Phe(3-F)][azaGly]L[Arg(Me)]W-NH2 (SMILES CNC(=N)NCCC[C@H](NC(=O)[C@H](CC(C)C)NC(=O)NNC(=O)[C@H](Cc1cccc(F)c1)NC(=O)[C@@H](NC(=O)[C@H](CC(N)=O)NC(=O)[C@@H](Cc1c[nH]c2ccccc12)NC(=O)[C@@H](Cc1ccc(O)cc1)NC(C)=O)[C@@H](C)O)C(=O)N[C@@H](Cc1c[nH]c2ccccc12)C(N)=O) [des(1)-Ac-[D-Tyr2,D-Trp3,Thr5,Phe(3F)6,AzaGly7,Arg(Me)9,Trp10]MS10]"
8,1.1,"Ac-[dY][dW][Dab]TF[azaGly]L[Arg(Me)]W-NH2 (SMILES CNC(=N)NCCC[C@H](NC(=O)[C@H](CC(C)C)NC(=O)NNC(=O)[C@H](Cc1ccccc1)NC(=O)[C@@H](NC(=O)[C@H](CCN)NC(=O)[C@@H](Cc1c[nH]c2ccccc12)NC(=O)[C@@H](Cc1ccc(O)cc1)NC(C)=O)[C@@H](C)O)C(=O)N[C@@H](Cc1c[nH]c2ccccc12)C(N)=O) [des(1)-Ac-[D-Tyr2,D-Trp3,Dab4,Thr5,AzaGly7,Arg(Me)9,Trp10]MS10]"
9,2.2,"Ac-[dY]ENTF[azaGly]L[Arg(Me)]W-NH2 (SMILES CNC(=N)NCCC[C@H](NC(=O)[C@H](CC(C)C)NC(=O)NNC(=O)[C@H](Cc1ccccc1)NC(=O)[C@@H](NC(=O)[C@H](CC(N)=O)NC(=O)[C@H](CCC(=O)O)NC(=O)[C@@H](Cc1ccc(O)cc1)NC(C)=O)[C@@H](C)O)C(=O)N[C@@H](Cc1c[nH]c2ccccc12)C(N)=O) [des(1)-Ac-[D-Tyr2,Glu3,Thr5,AzaGly7,Arg(Me)9,Trp10]MS10]"
10,7.2,"Decanoyl-NTF[azaGly]L[Arg(Me)]W-NH2 (SMILES CCCCCCCCCC(=O)N[C@@H](CC(N)=O)C(=O)N[C@H](C(=O)N[C@@H](Cc1ccccc1)C(=O)NNC(=O)N[C@@H](CC(C)C)C(=O)N[C@@H](CCCNC(=N)NC)C(=O)N[C@@H](Cc1c[nH]c2ccccc12)C(N)=O)[C@@H](C)O) [des(1-3)-Decanoyl-[Thr5,AzaGly7,Arg(Me)9,Trp10]MS10]"
11,3,"Ac-[dY][dS]NTF[azaGly]L[Arg(Me)]W-NH2 (SMILES CNC(=N)NCCC[C@H](NC(=O)[C@H](CC(C)C)NC(=O)NNC(=O)[C@H](Cc1ccccc1)NC(=O)[C@@H](NC(=O)[C@H](CC(N)=O)NC(=O)[C@@H](CO)NC(=O)[C@@H](Cc1ccc(O)cc1)NC(C)=O)[C@@H](C)O)C(=O)N[C@@H](Cc1c[nH]c2ccccc12)C(N)=O) [des(1)-Ac-[D-Tyr2,D-Ser3,Thr5,AzaGly7,Arg(Me)9,Trp10]MS10]"
12,2.4,"Ac-[dY]SNTF[azaGly]L[Arg(Me)]W-NH2 (SMILES CNC(=N)NCCC[C@H](NC(=O)[C@H](CC(C)C)NC(=O)NNC(=O)[C@H](Cc1ccccc1)NC(=O)[C@@H](NC(=O)[C@H](CC(N)=O)NC(=O)[C@H](CO)NC(=O)[C@@H](Cc1ccc(O)cc1)NC(C)=O)[C@@H](C)O)C(=O)N[C@@H](Cc1c[nH]c2ccccc12)C(N)=O) [des(1)-Ac-[D-Tyr2,Ser3,Thr5,AzaGly7,Arg(Me)9,Trp10]MS10]"
13,3.4,"Ac-[dY][dD]NTF[azaGly]L[Arg(Me)]W-NH2 (SMILES CNC(=N)NCCC[C@H](NC(=O)[C@H](CC(C)C)NC(=O)NNC(=O)[C@H](Cc1ccccc1)NC(=O)[C@@H](NC(=O)[C@H](CC(N)=O)NC(=O)[C@@H](CC(=O)O)NC(=O)[C@@H](Cc1ccc(O)cc1)NC(C)=O)[C@@H](C)O)C(=O)N[C@@H](Cc1c[nH]c2ccccc12)C(N)=O) [des(1)-Ac-[D-Tyr2,D-Asp3,Thr5,AzaGly7,Arg(Me)9,Trp10]MS10]"
14,2.3,"Ac-[dY][Izc]NTF[azaGly]L[Arg(Me)]W-NH2 [des(1)-Ac-[D-Tyr2,Izc3,Thr5,AzaGly7,Arg(Me)9,Trp10]MS10]"
15,3.4,"Ac-[dY]LNTF[azaGly]L[Arg(Me)]W-NH2 (SMILES CNC(=N)NCCC[C@H](NC(=O)[C@H](CC(C)C)NC(=O)NNC(=O)[C@H](Cc1ccccc1)NC(=O)[C@@H](NC(=O)[C@H](CC(N)=O)NC(=O)[C@H](CC(C)C)NC(=O)[C@@H](Cc1ccc(O)cc1)NC(C)=O)[C@@H](C)O)C(=O)N[C@@H](Cc1c[nH]c2ccccc12)C(N)=O) [des(1)-Ac-[D-Tyr2,Leu3,Thr5,AzaGly7,Arg(Me)9,Trp10]MS10]"
16,1.6,"Ac-[dY][dH]NTF[azaGly]L[Arg(Me)]W-NH2 (SMILES CNC(=N)NCCC[C@H](NC(=O)[C@H](CC(C)C)NC(=O)NNC(=O)[C@H](Cc1ccccc1)NC(=O)[C@@H](NC(=O)[C@H](CC(N)=O)NC(=O)[C@@H](Cc1c[nH]cn1)NC(=O)[C@@H](Cc1ccc(O)cc1)NC(C)=O)[C@@H](C)O)C(=O)N[C@@H](Cc1c[nH]c2ccccc12)C(N)=O) [des(1)-Ac-[D-Tyr2,D-His3,Thr5,AzaGly7,Arg(Me)9,Trp10]MS10]"
17,0.5,"Ac-[dY][dW]NT[Phe(2-F)][azaGly]L[Arg(Me)]W-NH2 (SMILES CNC(=N)NCCC[C@H](NC(=O)[C@H](CC(C)C)NC(=O)NNC(=O)[C@H](Cc1ccccc1F)NC(=O)[C@@H](NC(=O)[C@H](CC(N)=O)NC(=O)[C@@H](Cc1c[nH]c2ccccc12)NC(=O)[C@@H](Cc1ccc(O)cc1)NC(C)=O)[C@@H](C)O)C(=O)N[C@@H](Cc1c[nH]c2ccccc12)C(N)=O) [des(1)-Ac-[D-Tyr2,D-Trp3,Thr5,Phe(2F)6,AzaGly7,Arg(Me)9,Trp10]MS10]"
18,3.1,"Ac-[dY]KNT[Phe(2-F)][azaGly]L[Arg(Me)]W-NH2 (SMILES CNC(=N)NCCC[C@H](NC(=O)[C@H](CC(C)C)NC(=O)NNC(=O)[C@H](Cc1ccccc1F)NC(=O)[C@@H](NC(=O)[C@H](CC(N)=O)NC(=O)[C@H](CCCCN)NC(=O)[C@@H](Cc1ccc(O)cc1)NC(C)=O)[C@@H](C)O)C(=O)N[C@@H](Cc1c[nH]c2ccccc12)C(N)=O) [des(1)-Ac-[D-Tyr2,Lys3,Thr5,Phe(2F)6,AzaGly7,Arg(Me)9,Trp10]MS10]"
19,3.5,"Ac-[dY]ENT[Phe(2-F)][azaGly]L[Arg(Me)]W-NH2 (SMILES CNC(=N)NCCC[C@H](NC(=O)[C@H](CC(C)C)NC(=O)NNC(=O)[C@H](Cc1ccccc1F)NC(=O)[C@@H](NC(=O)[C@H](CC(N)=O)NC(=O)[C@H](CCC(=O)O)NC(=O)[C@@H](Cc1ccc(O)cc1)NC(C)=O)[C@@H](C)O)C(=O)N[C@@H](Cc1c[nH]c2ccccc12)C(N)=O) [des(1)-Ac-[D-Tyr2,Glu3,Thr5,Phe(2F)6,AzaGly7,Arg(Me)9,Trp10]MS10]"
20,2.6,"Ac-[dY][βAla]NTF[azaGly]L[Arg(Me)]W-NH2 (SMILES CNC(=N)NCCC[C@H](NC(=O)[C@H](CC(C)C)NC(=O)NNC(=O)[C@H](Cc1ccccc1)NC(=O)[C@@H](NC(=O)[C@H](CC(N)=O)NC(=O)CCNC(=O)[C@@H](Cc1ccc(O)cc1)NC(C)=O)[C@@H](C)O)C(=O)N[C@@H](Cc1c[nH]c2ccccc12)C(N)=O) [des(1)-Ac-[D-Tyr2,β-Ala3,Thr5,AzaGly7,Arg(Me)9,Trp10]MS10]"
